Article PMC10693595 (2023)

B1: human VZV neutralizing mAb 93k [modified: Cy5-conjugated] [human] / VZV glycoprotein B, wild type [varicella-zoster virus (VZV)] (parent complex)
chain 1: QVQLVQSGAEVKKPGSSVKVSCKASGGTFSNFAISWVRQAPGQGLEWMGRIMPLFVTSTYAQKFQGRVTISADASTSTAYMELSSLRSDDTAMYYCARDITAPGAAPTPLNFYGMDVWGQGTTVTVSS
chain 2: DIQMTQSPSTLSASVGDRVTITCRASQTISTWLAWYQQTPRKAPKLMIYKASILENGVPSRFSGSGSGTEFTLTISSLQPEDFATYYCQQYKSYPWTFGQGTKVEI
chain 3: VSPSSFYESLQVEPTQSEDITRSAHLGDGDEIREAIHKSQDAETKPTFYVCPPPTGSTIVRLEPTRTCPDYHLGKNFTEGIAVVYKENIAAYKFKATVYYKDVIVSTAWAGSSYTQITNRYADRVPIPVSEITDTIDKFGKCSSKATYVRNNHKVEAFNEDKNPQDMPLIASKYNSVGSKAWHTTNDTYMVAGTPGTYRTGTSVNCIIEEVEARSIFPYDSFGLSTGDIIYMSPFFGLRDGAYREHSNYAMDRFHQFEGYRQRDLDTRALLEPAARNFLVTPHLTVGWNWKPKRTEVCSLVKWREVEDVVRDEYAHNFRFTMKTLSTTFISETNEFNLNQIHLSQCVKEEARAIINRIYTTRYNSSHVRTGDIQTYLARGGFVVVFQPLLSNSLARLYLQELVRENTNHSPQKHPTRNTRSRRSVPVELRANRTITTTSSVEFAMLQFTYDHIQEHVNEMLARISSSWCQLQNRERALWSGLFPINPSALASTILDQRVKARILGDVISVSNCPELGSDTRIILQNSMRVSGSTTRCYSRPLISIVSLNGSGTVEGQLGTDNELIMSRDLLEPCVANHKRYFLFGHHYVYYEDYRYVREIAVHDVGMISTYVDLNLTLLKDREFMPLQVYTRDELRDTGLLDYSEIQRRNQMHSLRFYDIDKVVQYDSGTAIMQGMAQFFQGLGTAGQAVGHVVLGATGALLSTVHGFTTFLSNPFGALAVGLLVLAGLVAAFFAYRYVLKLKTSPMKALYPLTTKGLKQLPEGMDPFAEKPNATDTPIEEIGDSQNTEPSVNSGFDPDKFREAQEMIKYMTLVSAAERQESKARKKNKTSALLTSRLTGLALRNRRGYSRVRTENVTGV

Variants of: B1
Assay: flow cytometry on cells; CHO-DSP1 cells transfected, permeabilized, immunostained with Cy5-conjugated mAb 93k; n = 3; parent: 100; read off a plot

Variant	screen value [% WT]
chain 3 H456P	~120
chain 3 V457P	~48
chain 3 E455P	~110

Variants of: B1
Assay: as above
Remark: another data set of the same source

Variant	percent of parent [% WT]
chain 3 H456P	~95
chain 3 V457P	~18
chain 3 E455P	~70

Variants of: B1
Assay: flow cytometry on cells; CHO-DSP1 cells transfected, permeabilized, immunostained with Cy5-conjugated mAb 93k; n = 2; parent: 100; read off a plot

Variant	percent of parent [% WT]
chain 3 H456A	~98
chain 3 V457A	~98
chain 3 E455A	~110

Variants of: B1
Assay: as above
Remark: another data set of the same source

Variant	screen value [% WT]
chain 3 H456A	~120
chain 3 V457A	~120
chain 3 E455A	~120
